Results as given in publication PMC10723116.

Target: H3K9me3 chromatin arrays (12 x 200 bp x 601 oligonucleosomes with H3K9-trimethylated histone H3) (Xenopus | not stated) (UniProt P84233)

HP1α-K42 (K42Q mutant of human HP1α) (from UniProt P45973 1-191) (natural protein)
degree of association of H3K9me3 chromatin arrays (40 nM) with 5 μM protein, chromatin association assay: 20%
